This is an account of results in patent US20200255487A1, “A Cell-Based Seeding Assay for Huntingtin Aggregation” (THE REGENTS OF THE UNIVERSITY OF CALIFORNIA, priority 2017, published 2020).

In this assay the test system is HTT-ΔN17-46Q-GFP. Briefly: cell-based HTT seeding assay (ΔN17-1E cells). The arrangement: species or system human. The note with it: ΔN17-1E (HEK293) cells; substance applied as seed; FIG. 4. The text has this: Described herein is the development of a cell-based HTT seeding assay. A DNA construct encoding Exon1 of mutant human HTT with a 46 polyQ repeat was designed (FIG. 1C). This mutant HTT was engineered to delete amino acid residues 2-16 and was fused with a green fluorescent protein (GFP) at its C-terminus, named HTT-ΔN17-46Q-GFP hereafter. The HTT-ΔN17-46Q-GFP was then cloned into a pcDNA3 vector and transfected into HEK293 cells. Clones of stably transfected cells expressing HTT-ΔN17-46Q-GFP were selected to generate individual cell lines. Expression of the transgene in the cell lines was characterized to confirm its morphology, expression level and subcellular localization. Line 1E, named ΔN17-1E cells, was selected based on it moderate transgene expression with minimal protein aggregates at the baseline. Based on this cell line, a cell-based HTT seeding assay was developed. Extracellular application of preformed HTT aggregates or biosamples from HD patients as “seeds”, to ΔN17-1E cells could induce intracellular aggregation of HTT-ΔN17-46Q-GFP proteins (FIG. 1 through FIG. 3). […] Currently, the assay has been optimized to be performed in a high-throughput format, making it more capable with large quantity of samples. […]

B1: preformed mHTT-exon1 seeds: preformed mHTT-exon1 seeds derived from in vitro formed mHTT fibrils by sonication (protein)
chain: MATLEKLMKAFESLKSFQQQQQQQQQQQQQQQQQQQQQPPPPPPPPPPPQLPQPPPQAQPLLPQPQPPPPPPPPPPGPAVAEEPLHRP
With B1, the “induction of intracellular HTT-ΔN17-46Q-GFP aggregation by extracellularly applied seeds” value was “forms HTT-ΔN17-46Q-GFP aggregates”.
